Data taken from patent US20130209454A1.
Numbering of substitutions follows the chain as printed. In names and notes the source's numbering stands.

Columns and labels:
Experiment in all cases: cell-based or functional assay
[1] = target: HIV-1 Env of strain 1394C9G1(Rev-) (HIV-1)
[2] = target: HIV-1 Env of strain 191084 B7-19 (HIV-1)
[3] = target: HIV-1 Env of strain 6244_13_B5_4576 (HIV-1)
[4] = target: HIV-1 Env of strain 6540.v4.c1 (HIV-1)
[5] = target: HIV-1 Env of strain 7030102001E5(Rev) (HIV-1)
[6] = target: HIV-1 Env of strain BF1266.431a (HIV-1)
[7] = target: HIV-1 Env of strain BJOX015000.11.5 (HIV-1)
[8] = target: HIV-1 Env of strain BJOX028000.10.3 (HIV-1)
[9] = target: HIV-1 Env of strain CNE52 (HIV-1)
[10] = target: HIV-1 Env of strain Ce1172_H1 (HIV-1)
[11] = target: HIV-1 Env of strain HIV-16055-2.3 (HIV-1)
[12] = target: HIV-1 Env of strain TRJO4551.58 (HIV-1)
[13] = target: HIV-1 Env of strain X2088_c9 (HIV-1)
[14] = target: Env of HIV-1 strain 1012_11_TC21_3257 (HIV-1)
[15] = target: Env of HIV-1 strain 1054_07_TC4_1499 (HIV-1)
[16] = target: Env of HIV-1 strain 1056_10_TA11_1826 (HIV-1)
[17] = target: Env of HIV-1 strain 191821_E6_1 (HIV-1)
[18] = target: Env of HIV-1 strain 191955_A11 (HIV-1)
[19] = target: Env of HIV-1 strain 235-47 (HIV-1)
[20] = target: Env of HIV-1 strain 263-8 (HIV-1)
[21] = target: Env of HIV-1 strain 3016.v5.c45 (HIV-1)
[22] = target: Env of HIV-1 strain 3415.v1.c1 (HIV-1)
[23] = target: Env of HIV-1 strain 6041.v3.c23 (HIV-1)
[24] = target: Env of HIV-1 strain 620345.c01 (HIV-1)
[25] = target: Env of HIV-1 strain 6545.v4.c1 (HIV-1)
[26] = target: Env of HIV-1 strain 6811.v7.c18 (HIV-1)
[27] = target: Env of HIV-1 strain A07412M1.vrc12 (HIV-1)
[28] = target: Env of HIV-1 strain AC10.0.29 (HIV-1)
[29] = target: Env of HIV-1 strain BJOX009000.02.4 (HIV-1)
[30] = target: Env of HIV-1 strain BJOX025000.01.1 (HIV-1)
[31] = target: Env of HIV-1 strain CAP45.2.00.G3 (HIV-1)
[32] = target: Env of HIV-1 strain CNE21 (HIV-1)
[33] = target: Env of HIV-1 strain CNE30 (HIV-1)
[34] = target: Env of HIV-1 strain CNE53 (HIV-1)
[35] = target: Env of HIV-1 strain CNE58 (HIV-1)
[36] = target: Env of HIV-1 strain Ce1086_B2 (HIV-1)
[37] = target: Env of HIV-1 strain Ce2010_F5 (HIV-1)
[38] = target: Env of HIV-1 strain Ce703010054_2A2 (HIV-1)
[39] = target: Env of HIV-1 strain Ce704809221_1B3 (HIV-1)
[40] = target: Env of HIV-1 strain HIV-16845-2.22 (HIV-1)
[41] = target: Env of HIV-1 strain MS208.A1 (HIV-1)
[42] = target: Env of HIV-1 strain P0402_c2_11 (HIV-1)
[43] = target: Env of HIV-1 strain PVO.4 (HIV-1)
[44] = target: Env of HIV-1 strain QH0692.42 (HIV-1)
[45] = target: Env of HIV-1 strain TRJO4551.58 (HIV-1)
[46] = target: Env of HIV-1 strain WEAU_d15_410_787 (HIV-1)
[47] = target: Env of HIV-1 strain WITO4160.33 (HIV-1)
[48] = target: Env of HIV-1 strain X2088_c9 (HIV-1)
[49] = target: Env of HIV-1 strain ZM109F.PB4 (HIV-1)
[50] = target: Env of HIV-1 strain ZM247v1(Rev-) (HIV-1)

B1: NIH45-46^G54W(HC), S28Y(LC) (antibody, V domains shown)
VH: QVRLSQSGGQMKKPGESMRLSCRASGYEFLNCPINWIRLAPGRRPEWMGWLKPRWGAVNYARKFQGRVTMTRDVYSDTAFLELRSLTSDDTAVYFCTRGKYCTARDYYNWDFEHWGRGAPVTVSS
VL: EIVLTQSPATLSLSPGETAIISCRTSQYGSLAWYQQRPGQAPRLVIYSGSTRAAGIPDRFSGSRWGADYNLSISNLESGDFGVYYCQQYEFFGQGTKVQVDI
[1]
  IC50, pseudovirus neutralization: 0.012 µg/mL
[2]
  IC50, pseudovirus neutralization: 0.001 µg/mL
[3]
  IC50, pseudovirus neutralization: 0.03 µg/mL
[4]
  IC50, pseudovirus neutralization: > 50 µg/mL
[5]
  IC50, pseudovirus neutralization: 0.038 µg/mL
[6]
  IC50, pseudovirus neutralization: 0.002 µg/mL
[7]
  IC50, pseudovirus neutralization: 0.039 µg/mL
[8]
  IC50, pseudovirus neutralization: 0.001 µg/mL
[9]
  IC50, pseudovirus neutralization: 0.004 µg/mL
[10]
  IC50, pseudovirus neutralization: > 50 µg/mL
[11]
  IC50, pseudovirus neutralization: 0.002 µg/mL
[12]
  IC50, pseudovirus neutralization: 0.004 µg/mL
[13]
  IC50, pseudovirus neutralization: 44.3 µg/mL

B2: NIH45-46^G54W(HC) S28Y(LC) (antibody, V domains shown)
VH: B1 VH
VL: B1 VL
[14]
  IC80: 0.008 µg/mL
[15]
  IC80: 0.515 µg/mL
[16]
  IC80: 0.289 µg/mL
[17]
  IC80: 0.13 µg/mL
[18]
  IC80: 0.046 µg/mL
[19]
  IC80: 0.019 µg/mL
[20]
  IC80: 0.067 µg/mL
[21]
  IC80: 0.037 µg/mL
[22]
  IC80: 0.054 µg/mL
[23]
  IC80: 0.003 µg/mL
[24]
  IC80: > 50 µg/mL
[25]
  IC80: > 50 µg/mL
[26]
  IC80: 0.11 µg/mL
[27]
  IC80: 0.064 µg/mL
[28]
  IC80: 0.554 µg/mL
[29]
  IC80: 0.621 µg/mL
[30]
  IC80: 0.211 µg/mL
[31]
  IC80: 0.089 µg/mL
[32]
  IC80: 0.047 µg/mL
[33]
  IC80: 0.239 µg/mL
[34]
  IC80: 0.039 µg/mL
[35]
  IC80: 0.042 µg/mL
[36]
  IC80: 0.042 µg/mL
[37]
  IC80: 0.133 µg/mL
[38]
  IC80: 0.051 µg/mL
[39]
  IC80: 0.484 µg/mL
[40]
  IC80: 1.44 µg/mL
[41]
  IC80: 0.089 µg/mL
[42]
  IC80: 0.042 µg/mL
[43]
  IC80: 0.099 µg/mL
[44]
  IC80: 0.622 µg/mL
[45]
  IC80: 0.02 µg/mL
[46]
  IC80: 0.027 µg/mL
[47]
  IC80: 0.073 µg/mL
[48]
  IC80: > 50 µg/mL
[49]
  IC80: 0.086 µg/mL
[50]
  IC80: 0.034 µg/mL

B3: NIH45-46^G54W (antibody, V domains shown)
VH: B1 VH
VL: B1 VL with Y28S
[14]
  IC80: 0.003 µg/mL
[15]
  IC80: 0.165 µg/mL
[16]
  IC80: 0.16 µg/mL
[17]
  IC80: 0.099 µg/mL
[18]
  IC80: 0.076 µg/mL
[19]
  IC80: 0.017 µg/mL
[20]
  IC80: 0.025 µg/mL
[21]
  IC80: 15.4 µg/mL
[22]
  IC80: 0.023 µg/mL
[23]
  IC80: 0.001 µg/mL
[24]
  IC80: > 50 µg/mL
[25]
  IC80: > 50 µg/mL
[26]
  IC80: 0.033 µg/mL
[27]
  IC80: 0.042 µg/mL
[28]
  IC80: 0.63 µg/mL
[29]
  IC80: 0.564 µg/mL
[30]
  IC80: 0.135 µg/mL
[31]
  IC80: > 50 µg/mL
[32]
  IC80: 0.16 µg/mL
[33]
  IC80: 0.196 µg/mL
[34]
  IC80: 0.005 µg/mL
[35]
  IC80: 0.05 µg/mL
[36]
  IC80: 0.091 µg/mL
[37]
  IC80: 0.187 µg/mL
[38]
  IC80: 0.077 µg/mL
[39]
  IC80: 0.21 µg/mL
[40]
  IC80: 2.1 µg/mL
[41]
  IC80: 0.17 µg/mL
[42]
  IC80: 0.023 µg/mL
[43]
  IC80: 0.16 µg/mL
[44]
  IC80: 1.12 µg/mL
[45]
  IC80: 0.05 µg/mL
[46]
  IC80: 0.003 µg/mL
[47]
  IC80: 0.04 µg/mL
[48]
  IC80: > 50 µg/mL
[49]
  IC80: 0.07 µg/mL
[50]
  IC80: 2.6 µg/mL
[1]
  IC50, pseudovirus neutralization: 0.001 µg/mL
[2]
  IC50, pseudovirus neutralization: 0.001 µg/mL
[3]
  IC50, pseudovirus neutralization: 0.005 µg/mL
[4]
  IC50, pseudovirus neutralization: > 50 µg/mL
[5]
  IC50, pseudovirus neutralization: 0.042 µg/mL
[6]
  IC50, pseudovirus neutralization: 0.001 µg/mL
[7]
  IC50, pseudovirus neutralization: 0.048 µg/mL
[8]
  IC50, pseudovirus neutralization: 0.001 µg/mL
[9]
  IC50, pseudovirus neutralization: 0.01 µg/mL
[10]
  IC50, pseudovirus neutralization: > 50 µg/mL
[11]
  IC50, pseudovirus neutralization: 0.001 µg/mL
[12]
  IC50, pseudovirus neutralization: 0.01 µg/mL
[13]
  IC50, pseudovirus neutralization: > 50 µg/mL
